The record followed here is the nanobody polyreactivity screen of Harvey et al. (2022).

The data set in a line: yeast display, Sf9 membrane polyspecificity reagent, FACS + sequencing; frameworks hold sequencing errors. In outline:
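In a synthetic yeast display library (Saccharomyces cerevisiae BJ5465), nanobody expression was induced with galactose for 36–48 hours. FACS gates were set low and high (top ~1%) using anti-HA fluorescence for expression and streptavidin fluorescence for binding of the Sf9 membrane reagent. Each polyreactivity label is drawn from the gate of origin.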
“QVQLVESGGGLVQAGGSLRLSCAASGITFLHYALGWYRQAPGKERELDAAISVRGGITYYADSVKGRFTISRDNAKNTVYLQMHSLKPEDTAVFYCAADRPKFYNSIYDYWGQGTQVTVSS”: the “polyreactivity (PSR sort gate)” value is listed as “low polyreactivity”. Then “QVQLVESGGGLVQAGGSLRLSCAASGITFLKNAMGWYRQAPGKERELVAAISSSGGSTYYADSVKGRFTISRDNAKNTVYLQMNSLKPEDTAVYFCAARIYWYTPGRRGYTYDYWGQGTQVTVSS”, with “high polyreactivity”; and “QVQLVESGGGLVQAGGSLRLSCAASGITFLNYAMGWYRQAPGKERELVAAISWSGGRTYYADSVKGRFTISRDKGKNTVYLQMNSLKPEDTAVYYCAADRGVNSYGYWGQGTQVTVSS”, with “high polyreactivity”.

In the case of “QVQLVESGGGLVQAGGSLRLSCAASGITFLPYAMGWYRPAPGKERELVAAITRGGGSTYADSVKGRFTISRDNAKNTVYLQMNSLKPEDTAVYYCAKRYGRVSWYEDYDYWGQGTQVTVSS”, the “polyreactivity (PSR sort gate)” value is on record as “low polyreactivity”. As for “QVQLVESGGGLVQAGGSLRLSCAASGITFLPYTMGWYRQAPGKERELVATISWNGGSTYYADSVKGRFTISRDNAKNTVYLQMNSLKPEDTAVYYCAARQVQAPRSIGFYYWGQGTQVTVSS”, the entry is “high polyreactivity”; as for “QVQLVESGGGLVQAGGSLRLSCAASGITFLYYAMGRYRPAPGKERELVAAITGDGSTTYADSVKGRFTISRDNAKNTVYLQMNSLKPEDTAGYYCAADDQYYGDGFWGQGTQLTVSS”, “high polyreactivity”. For “QVQLVESGGGLVQAGGSLRLSCAASGITFNAYAMGWYRQAPGKERELVAAITSSGSSTYYADSVKGRFTISRDYAKNTVYLQMNSLKPDDTAVYYCAATRGTKFYWGQGTQVTVSS”, the “polyreactivity (PSR sort gate)” value is given as “high polyreactivity”.

In the case of “QVQLVESGGGLVQAGGSLRLSCAASGITFNGYAMGWYRQAPGKERELVAAISSSGGRTRYADSVKGRFTISRDNAKNTVYLQMNSLKPEDTAVYYCNARGYGQSNYWGQGTQVTVSS”, the “polyreactivity (PSR sort gate)” value is listed as “high polyreactivity”. As for “QVQLVESGGGLVQAGGSLRLSCAASGITFNKYAMGWYRQAPGKERELVAAISSRGGSTYYADSVKGRFTISRDNAKNTVYLQMNSLKPEDTAVYYCNADFYRASSNFDYWGQGTQVSVSS”, the entry is “high polyreactivity”; as for “QVQLVESGGGLVQAGGSLRLSCAASGITFNKYAMGWYRQAPGKERELVAAISSRGGSTYYADSVKGRFTISRDNAKNTVYLQMNSLKPEDTAVYYCNADVYRASNFDYWGQGTQVTVSS”, “high polyreactivity”; as for “QVQLVESGGGLVQAGGSLRLSCAASGITFNLNDMGWYRQAPGKERELVAAITSGGNTSYADSVKGRFTISRDNAKNTVDLQMNSLKPEDTAVYYCATEDFRTDTGMYYWGQGTQVTVSS”, “low polyreactivity”. As for “QVQLVESGGGLVQAGGSLRLSCAASGITFNLYAMGWYRQAPGKERELVAGITGGGSTYYADSVKGRFTISRDNAKNTVYLQMNSLTPEDTAVYYSTARRLGARYRGYYWGQGTQVTVSS”, the entry is “high polyreactivity”.

For “QVQLVESGGGLVQAGGSLRLSCAASGITFNRYALGWYRQAPGKERELVASIRWSGGSTNYADSVKGRFTISRDNGKNTVYLQMKSLKPEDTAVYYCNAGRESDDVYEGSQRIGQFDYWGQGTQVTVSS”, the “polyreactivity (PSR sort gate)” value is “low polyreactivity”. “QVQLVESGGGLVQAGGSLRLSCAASGITFNRYAMGWYRQAPGKERELVAGISRGVSTYYADSVKGRFTISRDNAKNTVYLQMKSLKPEDTAVYYCAAKPVVRYVSFGYDYWGQGTQVTVSS”: the “polyreactivity (PSR sort gate)” value was “high polyreactivity”.

“QVQLVESGGGLVQAGGSLRLSCAASGITFNSNAMGWYRQAPGKERELVATISNGGSTNYADSVKGRFTISRDNAKNTVYLQMNSLKPEDTAVYDCNTRRGSLSGLYVYSIQGYDYWGQGTQVTVSS”: the “polyreactivity (PSR sort gate)” value is reported as “low polyreactivity”.

With “QVQLVESGGGLVQAGGSLRLSCAASGITFNSYVMGWYRQAPGKERELVAAIRWSGGRTYYADSVKGRFTISRDNAKNTVYLQMNSLKPEDTAVYYCNRVTRSHVDYWGQGTQVTVSS”, the “polyreactivity (PSR sort gate)” value is on record as “high polyreactivity”. As for “QVQLVESGGGLVQAGGSLRLSCAASGITFNTDTMGWYRQAPGKEWELVAAITLSGAGTYYADSVKGRFTISRDNAKNTVYLQMNSLKPEDTAVYYCAAYLSENRWPYVRYDYWGQGTQVTVSS”, the entry is “high polyreactivity”; as for “QVQLVESGGGLVQAGGSLRLSCAASGITFNYYVMGWYRQAPGKERELVAAIRRGGSTNYADSVKGRFTISRDNAKNPVYLQMNSLKPEDTAVYYCAARTYRGLAYDYWGQGTQVTVSS”, “high polyreactivity”. As to “QVQLVESGGGLVQAGGSLRLSCAASGITFPANAMGWYRQAPGKERELVAAISSSGGSTYYADSVKGRFTISRDNAKNTVYLQMNSLKPEDTAVYYCAAYYGPSRSLYYYWGQGTQVTVSS”, the “polyreactivity (PSR sort gate)” value is recorded as “high polyreactivity”.

For the sequence “QVQLVESGGGLVQAGGSLRLSCAASGITFPFYAMGWYRQAPGKERELVAAISWSDVDTYYADSVKGRFTISRDNAKNTVYLQMNSLKPEDTAVYYCAVSGVHPYWSDYEYWGQGTQVTVSS”, the “polyreactivity (PSR sort gate)” value is listed as “low polyreactivity”. As for “QVQLVESGGGLVQAGGSLRLSCAASGITFPGNAMGWYRQAPGKERDLVAVISSGTSTNYADSVKGRFTISRDNAKNTVYLHMNSLKPEDTAVYYCAKATSSFYHYRYDYWGQGTQVTVSS”, the entry is “low polyreactivity”. Then “QVQLVESGGGLVQAGGSLRLSCAASGITFPLYAMGWYRQAPGKERELVATISGRGGSTYYADSVKGRFTISRDNAKNTVYLQMNSLKPEDTEVYYCNADFRSPYFLLSWYHSGDYWGQGTQVTVSS”, with “low polyreactivity”; and “QVQLVESGGGLVQAGGSLRLSCAASGITFPQNAMGWYRQAPGKERELVATIDNVGSTNYADSVKGRFTISRDNAKNTVYLQMNSLKPEDTAGYYCAKDYDWTLDYDGYPGYDYWGQGTQVTVSS”, with “high polyreactivity”. As for “QVQLVESGGGLVQAGGSLRLSCAASGITFPRYAMGWYRQAPGKERELVARISWGGGRTYYADSVKGRFTISRDNAKNTVYLPMNSLKPEDTAVYYSAARTWADPYGYWGQGTQVTVSS”, the entry is “high polyreactivity”; as for “QVQLVESGGGLVQAGGSLRLSCAASGITFPSYAMGWYRQAPGKEWELVATISRGDSTYYADSVKGRFTISRDNAKNTVYLQMNSLKPEDTAVYYCNARWWFQLYYYSTFAGYNYWGQGTQVTVSS”, “low polyreactivity”; as for “QVQLVESGGGLVQAGGSLRLSCAASGITFPYYAMGWSRQAPGKERELVAAISSSGGSTYYADSVKGRFTISRDNAKNTVYLQLNSLKPEDTAVYYCAAQRYINYDYWGQGTQVTVSS”, “high polyreactivity”.

On to “QVQLVESGGGLVQAGGSLRLSCAASGITFQANAMGWYRQAPGKERELVAAISSSDGSTYYADSVKGRFTISRDNAKNTVYLQMNSLKPEDTAVYYCNVDYAQRVFLYDYWGQGTQVTVSS”, for which the “polyreactivity (PSR sort gate)” value was “low polyreactivity”. Turning to “QVQLVESGGGLVQAGGSLRLSCAASGITFQGYTMGWYRQAPGKEWELVAAISSNGGRTYYADSVKGRFTISRDNAKNTVYLQMNSLKPEDTAVYYCAARSFWTYRSGGPSDYYYWGQGTQVTVSS”, the “polyreactivity (PSR sort gate)” value is on record as “high polyreactivity”. As for “QVQLVESGGGLVQAGGSLRLSCAASGITFQSNTMGCYRQAPGKERELVAAITWTGGRTYYADSVKGRFTISRDNAKNTVYLQMNSLKPEDTAVYYCNADGYAIGYNGKLDYWGQGTQVTVSS”, the entry is “high polyreactivity”; as for “QVQLVESGGGLVQAGGSLRLSCAASGITFQWYAMGWYRQAPGKERELVAGISSGGSTYYADSVKGRFTISRDNAKNTVYLQMNSLKPEDTAVYYCAADYGWYSPFYPSYKYEYWGQGTQVTVSS”, “low polyreactivity”; as for “QVQLVESGGGLVQAGGSLRLSCAASGITFRFNAMGWYRQAPGKEREFVAAITYSGDSTYYADSVKGRFTISRDNAKNTVYLQKNSLKPEDTAVYYCAADYYAISRRIFYYWGQGTQVTVSS”, “low polyreactivity”. Then “QVQLVESGGGLVQAGGSLRLSCAASGITFRGYTMGWYRQAPGKERELVARIRSSDGSTYYADSVKGRFTISRDNAKNTVYLQMNSLKPEDTAVYYCNADRRGRALKYYSWGQGTQVTVSS”, with “low polyreactivity”; and “QVQLVESGGGLVQAGGSLRLSCAASGITFRKYAMGWYRKAPGKERELVAAISVSGGSTYYADSVKGRFTISRDNAKNTVYLQMNSLKPEDTAVYYCATGRSTDKGYYYWGQGTQVTVSS”, with “high polyreactivity”. “QVQLVESGGGLVQAGGSLRLSCAASGITFRRYTMGWYRQAPGKERELVAAITTNAGSTYYADSVKGRFTISRDNAKNTVYLQMNSLKPEDTAVYYCAARWYYPYRTRYSSSYGYWGQGTQVTVSS”: the “polyreactivity (PSR sort gate)” value was “high polyreactivity”. As for “QVQLVESGGGLVQAGGSLRLSCAASGITFRSYAMGWYRQAPGKDRELVAAISRTGGRTYYADSVKGRFTISRDNAKNTVYLQMNTLKAEDTAVYYCAAGGYSPYSLVGYDYWGQGTQVTVSS”, the entry is “high polyreactivity”; as for “QVQLVESGGGLVQAGGSLRLSCAASGITFRSYAMGWYRQAPGKERELVAAISTSGGRTYYADSVKGRFTISRDNAKNTVYLQMNSLKPEDTAVYYCNKVGAVYGYYAYGLGYWGQGTQVTVSS”, “high polyreactivity”; as for “QVQLVESGGGLVQAGGSLRLSCAASGITFRTNAMGSSRQAPGKERELVAAITTNGGNTYYADSVKGRFTISRDNAKNTVYLQMNSLKPEDTAVYYCNTATYVDSFPDPGDHWGQGTQVTVSS”, “low polyreactivity”.

As for “QVQLVESGGGLVQAGGSLRLSCAASGITFRTNAMGWYRQAPGKERDLVAAIRTGYSTYYADSVKGRFTISRDNAKNPVYLQMNSLKPEDTAVYYCNAVRYSPVFRRKYDYWGQGTQVTVSS”, the “polyreactivity (PSR sort gate)” value was “high polyreactivity”.

Turning to “QVQLVESGGGLVQAGGSLRLSCAASGITFRTNTMGWYRQAPGKERELVAAISRGGTSTYYADSVKGRFTISRDNAKNTVYLQMNSLKPEDTAVYYCAADTRFYSGRGTVSGDYWGQGTQVTVSS”, the “polyreactivity (PSR sort gate)” value was “low polyreactivity”. Then “QVQLVESGGGLVQAGGSLRLSCAASGITFRTNTMGWYRQAPGKERELVAAITRSGVTTYYADSVKGRFTISRDNAKNTVYLQMNSLKPEDTAVYYCAAKSFYAHYDYWGQGTQVTVSS”, with “high polyreactivity”.
